Assay results reported in paper PMC11633101.

Target: bovine NECTIN1 with 6×his tag, purified from CHO cells (bovine)
Test: SPR; Biacore 8K, CM5 chip, 25°C, single-cycle mode, PBS; NECTIN1 and CD46 captured on the chip, serial dilutions of BVDV E2 injected; regeneration with glycine pH 2.5

Q: “BVDV E2 protein with 6×his tag, purified from 293F cells (from UniProt P19711 693-1066) (natural protein)” was tested. Which Kd did it give?
A: 3.47 pM
